From paper PMC7367873, “Dissecting the sequence determinants for dephosphorylation by the catalytic subunits of phosphatases PP1 and PP2A” (Nature Communications, 2020)

B1: KIFC3 (protein, UniProt Q9BVG8 1-833, looked up)
Kinesin-like protein KIFC3: MVPSRRTWNLGATPSLRGLWRVGRAPEPEPGMARPAPAPASPAARPFPHTGPGRLRTGRGKDTPVCGDEDSSARSAARPALAQCRALSVDWAGPGSPHGLYLTLQVEHLKEKLISQAQEVSRLRSELGGTDLEKHRDLLMVENERLRQEMRRCEAELQELRTKPAGPCPGCEHSQESAQLRDKLSQLQLEMAESKGMLSELNLEVQQKTDRLAEVELRLKDCLAEKAQEEERLSRRLRDSHETIASLRAQSPPVKYVIKTVEVESSKTKQALSESQARNQHLQEQVAMQRQVLKEMEQQLQSSHQLTARLRAQIAMYESELERAHGQMLEEMQSLEEDKNRAIEEAFARAQVEMKAVHENLAGVRTNLLTLQPALRTLTNDYNGLKRQVRGFPLLLQEALRSVKAEIGQAIEEVNSNNQELLRKYRRELQLRKKCHNELVRLKGNIRVIARVRPVTKEDGEGPEATNAVTFDADDDSIIHLLHKGKPVSFELDKVFSPQASQQDVFQEVQALVTSCIDGFNVCIFAYGQTGAGKTYTMEGTAENPGINQRALQLLFSEVQEKASDWEYTITVSAAEIYNEVLRDLLGKEPQEKLEIRLCPDGSGQLYVPGLTEFQVQSVDDINKVFEFGHTNRTTEFTNLNEHSSRSHALLIVTVRGVDCSTGLRTTGKLNLVDLAGSERVGKSGAEGSRLREAQHINKSLSALGDVIAALRSRQGHVPFRNSKLTYLLQDSLSGDSKTLMVVQVSPVEKNTSETLYSLKFAERVRSVELGPGLRRAELGSWSSQEHLEWEPACQTPQPSARAHSAPSSGTSSRPGSIRRKLQPSGKSRPLPV
B2: SMC3 (protein, UniProt Q9UQE7 1-1217, looked up)
Structural maintenance of …: MYIKQVIIQGFRSYRDQTIVDPFSSKHNVIVGRNGSGKSNFFYAIQFVLSDEFSHLRPEQRLALLHEGTGPRVISAFVEIIFDNSDNRLPIDKEEVSLRRVIGAKKDQYFLDKKMVTKNDVMNLLESAGFSRSNPYYIVKQGKINQMATAPDSQRLKLLREVAGTRVYDERKEESISLMKETEGKREKINELLKYIEERLHTLEEEKEELAQYQKWDKMRRALEYTIYNQELNETRAKLDELSAKRETSGEKSRQLRDAQQDARDKMEDIERQVRELKTKISAMKEEKEQLSAERQEQIKQRTKLELKAKDLQDELAGNSEQRKRLLKERQKLLEKIEEKQKELAETEPKFNSVKEKEERGIARLAQATQERTDLYAKQGRGSQFTSKEERDKWIKKELKSLDQAINDKKRQIAAIHKDLEDTEANKEKNLEQYNKLDQDLNEVKARVEELDRKYYEVKNKKDELQSERNYLWREENAEQQALAAKREDLEKKQQLLRAATGKAILNGIDSINKVLDHFRRKGINQHVQNGYHGIVMNNFECEPAFYTCVEVTAGNRLFYHIVDSDEVSTKILMEFNKMNLPGEVTFLPLNKLDVRDTAYPETNDAIPMISKLRYNPRFDKAFKHVFGKTLICRSMEVSTQLARAFTMDCITLEGDQVSHRGALTGGYYDTRKSRLELQKDVRKAEEELGELEAKLNENLRRNIERINNEIDQLMNQMQQIETQQRKFKASRDSILSEMKMLKEKRQQSEKTFMPKQRSLQSLEASLHAMESTRESLKAELGTDLLSQLSLEDQKRVDALNDEIRQLQQENRQLLNERIKLEGIITRVETYLNENLRKRLDQVEQELNELRETEGGTVLTATTSELEAINKRVKDTMARSEDLDNSIDKTEAGIKELQKSMERWKNMEKEHMDAINHDTKELEKMTNRQGMLLKKKEECMKKIRELGSLPQEAFEKYQTLSLKQLFRKLEQCNTELKKYSHVNKKALDQFVNFSEQKEKLIKRQEELDRGYKSIMELMNVLELRKYEAIQLTFKQVSKNFSEVFQKLVPGGKATLVMKKGDVEGSQSQDEGEGSGESERGSGSQSSVPSVDQFTGVGIRVSFTGKQGEMREMQQLSGGQKSLVALALIFAIQKCDPAPFYLFDEIDQALDAQHRKAVSDMIMELAVHAQFITTTFRPELLESADKFYGVKFRNKVSHIDVITAEMAKDFVEDDTTHG
B3: MYO1E (protein, UniProt Q12965 1-1108, looked up)
Unconventional myosin-Ie: MGSKGVYQYHWQSHNVKHSGVDDMVLLSKITENSIVENLKKRYMDDYIFTYIGSVLISVNPFKQMPYFGEKEIEMYQGAAQYENPPHIYALADNMYRNMIIDRENQCVIISGESGAGKTVAAKYIMSYISRVSGGGTKVQHVKDIILQSNPLLEAFGNAKTVRNNNSSRFGKYFEIQFSPGGEPDGGKISNFLLEKSRVVMRNPGERSFHIFYQLIEGASAEQKHSLGITSMDYYYYLSLSGSYKVDDIDDRREFQETLHAMNVIGIFAEEQTLVLQIVAGILHLGNISFKEVGNYAAVESEEFLAFPAYLLGINQDRLKEKLTSRQMDSKWGGKSESIHVTLNVEQACYTRDALAKALHARVFDFLVDSINKAMEKDHEEYNIGVLDIYGFEIFQKNGFEQFCINFVNEKLQQIFIELTLKAEQEEYVQEGIRWTPIEYFNNKIVCDLIENKVNPPGIMSILDDVCATMHAVGEGADQTLLQKLQMQIGSHEHFNSWNQGFIIHHYAGKVSYDMDGFCERNRDVLFMDLIELMQSSELPFIKSLFPENLQADKKGRPTTAGSKIKKQANDLVSTLMKCTPHYIRCIKPNETKKPRDWEESRVKHQVEYLGLKENIRVRRAGYAYRRIFQKFLQRYAILTKATWPSWQGEEKQGVLHLLQSVNMDSDQFQLGRSKVFIKAPESLFLLEEMRERKYDGYARVIQKSWRKFVARKKYVQMREEASDLLLNKKERRRNSINRNFIGDYIGMEEHPELQQFVGKREKIDFADTVTKYDRRFKGVKRDLLLTPKCLYLIGREKVKQGPDKGLVKEVLKRKIEIERILSVSLSTMQDDIFILHEQEYDSLLESVFKTEFLSLLAKRYEEKTQKQLPLKFSNTLELKLKKENWGPWSAGGSRQVQFHQGFGDLAVLKPSNKVLQVSIGPGLPKNSRPTRRNTTQNTGYSSGTQNANYPVRAAPPPPGYHQNGVIRNQYVPYPHAPGSQRSNQKSLYTSMARPPLPRQQSTSSDRVSQTPESLDFLKVPDQGAAGVRRQTTSRPPPAGGRPKPQPKPKPQVPQCKALYAYDAQDTDELSFNANDIIDIIKEDPSGWWTGRLRGKQGLFPNNYVTKI
B4: ILF3 (protein, UniProt Q12906 1-894, looked up)
Interleukin enhancer-binding …: MRPMRIFVNDDRHVMAKHSSVYPTQEELEAVQNMVSHTERALKAVSDWIDEQEKGSSEQAESDNMDVPPEDDSKEGAGEQKTEHMTRTLRGVMRVGLVAKGLLLKGDLDLELVLLCKEKPTTALLDKVADNLAIQLAAVTEDKYEILQSVDDAAIVIKNTKEPPLSLTIHLTSPVVREEMEKVLAGETLSVNDPPDVLDRQKCLAALASLRHAKWFQARANGLKSCVIVIRVLRDLCTRVPTWGPLRGWPLELLCEKSIGTANRPMGAGEALRRVLECLASGIVMPDGSGIYDPCEKEATDAIGHLDRQQREDITQSAQHALRLAAFGQLHKVLGMDPLPSKMPKKPKNENPVDYTVQIPPSTTYAITPMKRPMEEDGEEKSPSKKKKKIQKKEEKAEPPQAMNALMRLNQLKPGLQYKLVSQTGPVHAPIFTMSVEVDGNSFEASGPSKKTAKLHVAVKVLQDMGLPTGAEGRDSSKGEDSAEETEAKPAVVAPAPVVEAVSTPSAAFPSDATAEQGPILTKHGKNPVMELNEKRRGLKYELISETGGSHDKRFVMEVEVDGQKFQGAGSNKKVAKAYAALAALEKLFPDTPLALDANKKKRAPVPVRGGPKFAAKPHNPGFGMGGPMHNEVPPPPNLRGRGRGGSIRGRGRGRGFGGANHGGYMNAGAGYGSYGYGGNSATAGYSQFYSNGGHSGNASGGGGGGGGGSSGYGSYYQGDNYNSPVPPKHAGKKQPHGGQQKPSYGSGYQSHQGQQQSYNQSPYSNYGPPQGKQKGYNHGQGSYSYSNSYNSPGGGGGSDYNYESKFNYSGSGGRSGGNSYGSGGASYNPGSHGGYGGGSGGGSSYQGKQGGYSQSNYNSPGSGQNYSGPPSSYQSSQGGYGRNADHSMNYQYR
B5: GEMIN8 (protein, UniProt Q9NWZ8 1-242, looked up)
Gem-associated protein 8: MAAVKASTSKATRPWYSHPVYARYWQHYHQAMAWMQSHHNAYRKAVESCFNLPWYLPSALLPQSSYDNEAAYPQSFYDHHVAWQDYPCSSSHFRRSGQHPRYSSRIQASTKEDQALSKEEEMETESDAEVECDLSNMEITEELRQYFAETERHREERRRQQQLDAERLDSYVNADHDLYCNTRRSVEAPTERPGERRQAEMKRLYGDSAAKIQAMEAAVQLSFDKHCDRKQPKYWPVIPLKF
B6: TFCP2 (protein, UniProt Q12800 1-502, looked up)
Alpha-globin transcription …: MAWALKLPLADEVIESGLVQDFDASLSGIGQELGAGAYSMSDVLALPIFKQEESSLPPDNENKILPFQYVLCAATSPAVKLHDETLTYLNQGQSYEIRMLDNRKLGELPEINGKLVKSIFRVVFHDRRLQYTEHQQLEGWRWNRPGDRILDIDIPMSVGIIDPRANPTQLNTVEFLWDPAKRTSVFIQVHCISTEFTMRKHGGEKGVPFRVQIDTFKENENGEYTEHLHSASCQIKVFKPKGADRKQKTDREKMEKRTPHEKEKYQPSYETTILTECSPWPEITYVNNSPSPGFNSSHSSFSLGEGNGSPNHQPEPPPPVTDNLLPTTTPQEAQQWLHRNRFSTFTRLFTNFSGADLLKLTRDDVIQICGPADGIRLFNALKGRMVRPRLTIYVCQESLQLREQQQQQQQQQQKHEDGDSNGTFFVYHAIYLEELTAVELTEKIAQLFSISPCQISQIYKQGPTGIHVLISDEMIQNFQEEACFILDTMKAETNDSYHIILK
B7: LSM12 (protein, UniProt Q3MHD2 2-195, looked up)
Protein LSM12: AAPPGEYFSVGSQVSCRTCQEQRLQGEVVAFDYQSKMLALKCPSSSGKPNHADILLINLQYVSEVEIINDRTETPPPLASLNVSKLASKARTEKEEKLSQAYAISAGVSLEGQQLFQTIHKTIKDCKWQEKNIVVMEEVVITPPYQVENCKGKEGSALSHVRKIVEKHFRDVESQKILQRSQAQQPQKEAALSS

system: GFP-14-3-3β; experiment: GFP-14-3-3β co-IP with LC-MS/MS, untreated GFP-14-3-3β versus GFP control (14-3-3 interactome); type: binding, human; conditions: GFP-14-3-3β co-IP LC-MS/MS; untreated vs GFP; student's t-test; label-free quantification, 3 replicates each

| Molecule | Difference (log2), untreated vs GFP |
| --- | --- |
| B1 | 1.361 log2 |
| B2 | 0.1297 log2 |
| B3 | 1.374 log2 |
| B4 | 3.029 log2 |
| B5 | 0.1049 log2 |
| B6 | 0.6477 log2 |

same assay, conditions: log2 difference; pairwise comparison untreated vs GFP, label-free quantification, 3 replicates each

| Molecule | Difference (log2), untreated vs GFP |
| --- | --- |
| B7 | 1.227 |

system: GFP-14-3-3β and its binding proteins; experiment: GFP-14-3-3β co-IP with LC-MS/MS label-free quantification, untreated versus PP1c-treated; set-up: species or system human; conditions: GFP-14-3-3β co-IP LC-MS/MS; PP1 vs untreated; student's t-test; label-free quantification, 3 replicates each

| Difference (log2), PP1 vs untreated | Molecule |
| --- | --- |
| -0.1977 log2 | B1 |
| -0.1648 log2 | B2 |
| -0.1954 log2 | B3 |
| -0.2231 log2 | B4 |
| -0.2137 log2 | B5 |
| -0.2131 log2 | B6 |

same assay, conditions: log2 difference; pairwise comparison PP1 vs untreated, label-free quantification, 3 replicates each

| Difference (log2), PP1 vs untreated | Molecule |
| --- | --- |
| 1.729 | B7 |
